Experiment [1] addresses T1, SARS-CoV-2 prototype RBD-His tag protein (Severe acute respiratory syndrome …, UniProt P0DTC2). Kind of experiment: cell-based or functional assay.
The target of experiment [2] is T1, SARS-CoV-2 prototype RBD-His tag protein. In words: SPR. Background: In SPR one partner is held on a chip, and binding of the other changes the refractive index at the surface.

B1: SWC11 (antibody, V domains shown)
VH: EVQLVESGGGLIQPGGSLRLSCAASEFIVSRNYMSWVRQAPGTGLEWVSVIYPGGSTFYADSVKGRFTISRDNSKNTLYLQMDSLRVEDTAVYYCARDYGDFYFDYWGQGTLVTVSS
VL: EIVMTQSPVSLSVSPGERATLSCRASQGVASNLAWYQQKAGQAPRLLIYGASTRATGIPARFSGSGSGTEFTLTISTLQSEDSAVYYCQQYNDRPRTFGQGTKLEIK
Regarding B1, in experiment [1], the “neutralisation of SARS-CoV-2 prototype pseudovirus, IC50” value (shortened to “neutralisation”) is < 0.1 µg/mL. Further, in experiment [2], binding was characterised by a dissociation constant (Kd) of 0.627 nM.

B2: SWA9 (antibody, V domains shown)
VH: QMQLVQSGPEVKKPGTSVKVSCKASGFTFTNSAMQWVRQARGQRLEWVGWIVVASGNANSARRFHDRVTITSDMSTSTAYLELSSLRSEDTAVYYCALNHCSNTTCLDGFDIWGQGTMVSVSS
VL: EIVLTQSPVTLSLSPGERATLSCRASQSVRNSLLAWYQQKPGQAPRLLIYAASSRATGIPDRFSGSGSGTDFTLTISRLEPEDFVVYYCQQHGSSPPWTFGQGTKVEFK
For B2, the “neutralisation” value in experiment [1] was < 0.1 µg/mL. Moreover, the Kd (as a rule, a measure of binding affinity in units of concentration) in experiment [2] was 0.345 nM.

B3: 2YYQH9 (antibody, V domains shown)
VH: EVQLVESGGGLIQPGGSLRLSCAASGVTVIRNYMTWVRQAPGKGLEWVSVIYPGGTTYYADSVKGRFTISRDSSKNTLYLQMNSLRAEDAAVYFCARAYGDYYFDLWGQGTLLTVSS
VL: EMVMTQSPASLSLSPGERATLSCRASQGVDSSYLAWYQQKPGQAPRLLMYGASSRATGIPDRFSGSGYGTDFTLTISRVEPEDFAVYYCQVAFTFGQGTKVEIK
B3: the “neutralisation” value in experiment [1] was < 0.1 µg/mL. The molecule also yielded a Kd in experiment [2] of 0.428 nM.

These data come from publication PMC11844185 (Journal of Translational Medicine, 2025).
